This is an account of results in patent publication US20240002509A1.

This experiment deals with human FcγR1A (human) (UniProt P12314). In words: SPR (Biacore T200), antibody amine-coupled on CM5 (~950 RU), receptor as analyte, 25 C. (In general: In SPR one partner is held on a chip, and binding of the other changes the refractive index at the surface.)
Chain of UniProt P12314 (P12314 16-288 limits assumed): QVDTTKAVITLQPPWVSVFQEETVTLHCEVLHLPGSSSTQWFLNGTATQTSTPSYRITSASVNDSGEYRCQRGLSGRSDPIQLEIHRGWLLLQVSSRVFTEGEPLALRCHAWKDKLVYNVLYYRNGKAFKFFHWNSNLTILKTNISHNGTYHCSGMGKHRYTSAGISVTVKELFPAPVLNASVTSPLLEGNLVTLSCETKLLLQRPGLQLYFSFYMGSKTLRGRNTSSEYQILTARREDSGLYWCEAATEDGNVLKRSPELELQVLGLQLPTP
“GADAPASK-IgG1 (G237A/D265A/P329A/S267K) anti-CD3 antibody” had a Maximum response at 100 nM hFcgammaRIA (RU) of 10 RU. With “LALASKPA-IgG1 (L234A/L235A/S267K/P329A) anti-CD3 antibody” the figure was 9 RU; with “DAPASK-IgG1 (D265A/P329A/S267K) anti-CD3 antibody”, 13 RU; with “LALAPG-IgG1 (L234A/L235A/P329G) anti-CD3 antibody”, 18 RU. With “LALAGA-IgG1 (L234A/L235A/G237A) anti-CD3 antibody” the figure was 15 RU; with “GADAPA-IgG1 (G237A/D265A/P329A) anti-CD3 antibody”, 16 RU.

On to “DANAPA-IgG1 (D265A/N297A/P329A) anti-CD3 antibody”, for which the Maximum response at 100 nM hFcgammaRIA (RU) came out at 11 RU.
